The supplement of paper PMC9112550, “Optimization of the antimicrobial peptide Bac7 by deep mutational scanning” (BMC Biology, 2022)

Tested on: Escherichia coli TOP10
Assay: shrunken log2 fold change of peptide-encoding DNA abundance (4.5 h post-induction vs induction); higher = less antimicrobial activity (less host growth inhibition)
Conditions: time post-induction: 4.5 h; library: site-saturation at positions 5, 18, 19, 20
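Also: peptides expressed intracellularly from a pBAD plasmid library in pooled LB shake-flask culture, induced with 0.3% L-arabinose, DNA abundance read by NGS, three biological replicates, DESeq2 with apeglm shrinkage.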

Row | Sequence | shrunken log2 fold change
1 | RRIRFRPPRLPRPRPRPKAKPRP | -0.016
2 | RRIRFRPPRLPRPRPRPKALPRP | 0.191
3 | RRIRFRPPRLPRPRPRPKAQPRP | -0.0881
4 | RRIRFRPPRLPRPRPRPKAYPRP | -0.436
5 | RRIRFRPPRLPRPRPRPKCLPRP | 0.049
6 | RRIRFRPPRLPRPRPRPKDYPRP | -0.788
7 | RRIRFRPPRLPRPRPRPKEGPRP | 0.0546
8 | RRIRFRPPRLPRPRPRPKEVPRP | 0.0322
9 | RRIRFRPPRLPRPRPRPKFKPRP | -0.238
10 | RRIRFRPPRLPRPRPRPKFNPRP | -0.588
11 | RRIRFRPPRLPRPRPRPKFVPRP | -0.0222
12 | RRIRFRPPRLPRPRPRPKHHPRP | -0.282
13 | RRIRFRPPRLPRPRPRPKHIPRP | -0.615
14 | RRIRFRPPRLPRPRPRPKIVPRP | -0.207
15 | RRIRFRPPRLPRPRPRPKKLPRP | 0.173
16 | RRIRFRPPRLPRPRPRPKLMPRP | 0.195
17 | RRIRFRPPRLPRPRPRPKNKPRP | -0.384
18 | RRIRFRPPRLPRPRPRPKPKPRP | 0.848
19 | RRIRFRPPRLPRPRPRPKSDPRP | 0.0639
20 | RRIRFRPPRLPRPRPRPKSPPRP | -0.143
21 | RRIRFRPPRLPRPRPRPKVDPRP | -0.0492
22 | RRIRFRPPRLPRPRPRPKVGPRP | -0.01
23 | RRIRFRPPRLPRPRPRPKVLPRP | -0.128
24 | RRIRFRPPRLPRPRPRPKWGPRP | 0.129
25 | RRIRFRPPRLPRPRPRPLAVPRP | 0.249

Row | Sequence | shrunken log2 fold change
26 | RRIRFRPPRLPRPRPRPLCNPRP | -0.398
27 | RRIRFRPPRLPRPRPRPLCRPRP | -0.406
28 | RRIRFRPPRLPRPRPRPLDGPRP | -0.143
29 | RRIRFRPPRLPRPRPRPLEFPRP | -0.0464
30 | RRIRFRPPRLPRPRPRPLERPRP | -0.0153
31 | RRIRFRPPRLPRPRPRPLETPRP | 0.105
32 | RRIRFRPPRLPRPRPRPLFAPRP | 0.15
33 | RRIRFRPPRLPRPRPRPLGGPRP | -0.235
34 | RRIRFRPPRLPRPRPRPLGSPRP | 0.192
35 | RRIRFRPPRLPRPRPRPLGYPRP | 0.0222
36 | RRIRFRPPRLPRPRPRPLHSPRP | 0.12
37 | RRIRFRPPRLPRPRPRPLIFPRP | -0.666
38 | RRIRFRPPRLPRPRPRPLIMPRP | -0.352
39 | RRIRFRPPRLPRPRPRPLNPPRP | -0.1
40 | RRIRFRPPRLPRPRPRPLQQPRP | -0.0115
41 | RRIRFRPPRLPRPRPRPLQTPRP | 0.165
42 | RRIRFRPPRLPRPRPRPLRGPRP | 0.607
43 | RRIRFRPPRLPRPRPRPLSIPRP | -0.203
44 | RRIRFRPPRLPRPRPRPLSKPRP | 0.72
45 | RRIRFRPPRLPRPRPRPLTYPRP | -0.573
46 | RRIRFRPPRLPRPRPRPLWGPRP | 0.251
47 | RRIRFRPPRLPRPRPRPLWMPRP | -0.0523
48 | RRIRFRPPRLPRPRPRPLWSPRP | 0.655
49 | RRIRFRPPRLPRPRPRPMACPRP | -0.00146
50 | RRIRFRPPRLPRPRPRPMCHPRP | -0.325

Row | Sequence | shrunken log2 fold change
51 | RRIRFRPPRLPRPRPRPMFCPRP | -0.111
52 | RRIRFRPPRLPRPRPRPMHLPRP | 0.00575
53 | RRIRFRPPRLPRPRPRPMHQPRP | -0.0493
54 | RRIRFRPPRLPRPRPRPMKPPRP | -0.0229
55 | RRIRFRPPRLPRPRPRPMMCPRP | -0.139
56 | RRIRFRPPRLPRPRPRPMNQPRP | -0.528
57 | RRIRFRPPRLPRPRPRPMPTPRP | 0.432
58 | RRIRFRPPRLPRPRPRPMRAPRP | 1.02
59 | RRIRFRPPRLPRPRPRPMRVPRP | 0.973
60 | RRIRFRPPRLPRPRPRPMSCPRP | 0.0282
61 | RRIRFRPPRLPRPRPRPMSTPRP | -0.386
62 | RRIRFRPPRLPRPRPRPMSVPRP | -0.482
63 | RRIRFRPPRLPRPRPRPMTGPRP | -0.0757
64 | RRIRFRPPRLPRPRPRPMTWPRP | 0.478
65 | RRIRFRPPRLPRPRPRPMTYPRP | -0.0939
66 | RRIRFRPPRLPRPRPRPMVMPRP | -0.696
67 | RRIRFRPPRLPRPRPRPMVVPRP | -0.0152
68 | RRIRFRPPRLPRPRPRPMYLPRP | -0.376
69 | RRIRFRPPRLPRPRPRPNAAPRP | 0.419
70 | RRIRFRPPRLPRPRPRPNAKPRP | -0.00228
71 | RRIRFRPPRLPRPRPRPNDLPRP | 0.00528
72 | RRIRFRPPRLPRPRPRPNECPRP | -0.00063
73 | RRIRFRPPRLPRPRPRPNFCPRP | 0.0651
74 | RRIRFRPPRLPRPRPRPNFQPRP | -0.272
75 | RRIRFRPPRLPRPRPRPNGWPRP | 0.0579
